# Target: T1, Fc-conjugated HER2 (HER2-Fc), R&D Systems cat. No 1129-ER (human, UniProt P04626 23-652)
# T1 construct: Bought reagent; Captured on an anti-Fc surface in the SPR binning; also called rhHER2; HER2 protein (R&D Systems cat.#1129-ER); not shown: Fc part of the bought fusion protein
# Assay: SPR epitope binning (ProteOn XPR36), HER2-Fc captured via anti-Fc; competitor 4387; class limits for the pair
binder,measurement,value
"antibody 4382 (antibody, human IgG1, kappa, V domains shown, Chimeric murine/human IgG1 kappa) VH: EVQLQQSGPELVKPGASVKISCTASGYTFTDYYMNWVKQSHGKSLEWIGDINPNNGGTNYNQKWKGKATLTIHKSSSTAYMELRSLTSEDSAVYFCVPGGLRSYFDYWGQGTTLTVSS VL: DIVMTQSLKFMSASVGDRVSITCKASQDVSAAVAWYQQKPGQSPELLIYWASTRHTGVPDRFTGSGSGTDYTLTISSVQAEDLALYYCQQHYTTPPTFGGGTKLEIKR",% inhibition,25 to 50%

# From patent publication US20110217305A1 (SYMPHOGEN A S, published 2011)
